Assay results reported in the supplement of paper PMC9170038.

Test system: MS2 coat protein
Assay: apparent KD of MS2 coat protein; designed switch direction (-1 OFF switch, 1 ON switch): 1; higher = weaker reporter binding
In short: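 Each step of the titration lasted 0.8–1.5 h at the lowest concentration and 10–20 min at the highest. The protein, SNAP-549-labelled MS2 coat protein, went from 0.7 or 1.5 nM doubling to 3 µM over RNA switches transcribed on Illumina chips by stalled E. coli RNA polymerase. Normalised cluster fluorescence was curve-fitted, and the per-design median over clusters is given as apparent KD.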

[1] = input ligand: microRNA oligo, concentration not stated
[2] = Eterna round: R95, input ligand: FMN 200 uM
[3] = Eterna round: R95, input ligand: microRNA oligo, concentration not stated
[4] = Eterna round: R95, input ligand: none

Row | Sequence | apparent KD of MS2 coat protein (input ligand: FMN 200 uM) [nM] | apparent KD of MS2 coat protein [1] [nM] | apparent KD of MS2 coat protein (input ligand: none) [nM] | apparent KD of MS2 coat protein [2] [nM] | apparent KD of MS2 coat protein [3] [nM] | apparent KD of MS2 coat protein [4] [nM]
1 | UUAAUAAUGUAAGGAUAUACAUGAGGAUUUCUCGUAGAAGGUACAUUACAUGAGGAUCACCCAUGUGGGUGUCAGAAGACGCCA [Mat - Same State NG 1 - JL mod - D13] (Eterna round: R96, puzzle: Same State NG 1) | 143 | 953 | 275 | – | – | –
2 | GGCUAUCGCAUUCGAUAGCUUAAGCAUGUACAUGAGGAUCACCCAUGUCAUGUACAGGCUUUUUGCUCGUACUUAUA (puzzle: Sensor for hsa-mir-208a) | – | – | – | 286 | 14.9 | 366
3 | AACCGGGAGAAGCAGGAUAUUGCCUCUUCAACAUGAGGAUCACCCAUGUAAGUAAAUUGACGAUACAAGAAGGGCUGCUCCUUAC [Raatgees] (Eterna round: R96, puzzle: Same State 2) | – | 79.1 | – | – | – | –
4 | GCUAGGAAUAAAGCCAACAUGAGGAUCACCCAUGUAUGUUGGUAGGAUAUCGUUUGCAAAGCAAACGAGAAGGGCUAACCUAGC [Mat - Same State NG 3 - JL Mod - D68] (Eterna round: R96, puzzle: Same State NG 3) | 85.8 | 62.7 | 71.1 | – | – | –
5 | UAGUAUUAGCGAGGAUAUCGUAUGUUCAAUUUUUUAUAUUGUUUACAUGAGGAUCACCCAUGUUACGAGAAGGCGCAUGGGAUU [JR_SSNG2_Sub081] (Eterna round: R96, puzzle: Same State NG 2) | – | 371 | – | – | – | –
6 | CGCCAGAGAGCAGGAUAUGGGCCACGGCCUAAGGGCUGUGAACUCACAUGAGGAUCACCCAUGUCCCAGAAGGGCUCCUGGCUA [Temabeanan] (Eterna round: R96, puzzle: Same State NG 2) | 112 | 1020 | 1180 | – | – | –
7 | GCAGUACAUGAGGAUCACCCAUGUCUCUAAAGUCGAGGAUAUGGGCAGGUUAUAUCCGAACCAGAAGGCGAACUGC [SS1 Teenbexe 11] (puzzle: Same State 1) | – | – | – | 68.6 | 260 | 527
8 | GGACGUCAAUCUCCUAAUUAAACAUGAGGAUCACCCAUGUCACAGGAUAUGAGUCCGAUUAGGACUCAGAAGGGUGAGACGUCC [Fiskers NG3ss - 49] (Eterna round: R96, puzzle: Same State NG 3) | 22.1 | 17.2 | 25.8 | – | – | –
9 | ACAUGAGAGAUAGGAUAUGUUGUACCUACAUGUGACAUGAGGAUCACCCAUGUGGUAAGUAUGAGGCAGAAGGAUCAGAUAUGU [Equivalence 41 - Jieux - Same State NG 2] (Eterna round: R96, puzzle: Same State NG 2) | 29.2 | 68.1 | 88.1 | – | – | –
10 | UUAAUAAAUCAAGGAUAUCACGUCGAUUAGACGUGAGAAGGUGAUCAUAACAUGAGGAUCACCCAUGUAUUACAUGAAUAUUAA [SSNG1/1-B2] (Eterna round: R96, puzzle: Same State NG 1) | 1810 | 721 | 659 | – | – | –
11 | GCUUCGGCGGUAGGAUAUCUAGGAUAUGGGAAAGACUAAGUCUGUAGGUCACCUAACCCAGAAGGAGAGAAGGACAGGUUCGCC [pwkr ssNG2 2FMN + F9.35] (Eterna round: R96, puzzle: Same State NG 2) | 415 | 1.71 | 1.98 | – | – | –
12 | GUAGCAUACCGAGGAUAUUCAUAUUACAUGAGGAUCACCCAUGUUAUAGGUCGAUUACGACCUUGGGAGAAGGCGGAAUGCUAC [Xeonanis - 20 Mod32] (Eterna round: R96, puzzle: Same State NG 2) | – | 23 | – | – | – | –
13 | GGAGAACAUGAGGAUCACCCAUGUGGAUGGGCGCUAGGAUAUGCGAGAGGGUGGAGAGAAGCAGAAGGAGUGGAUA [JR_SS1_Sub037] (puzzle: Same State 1) | – | – | – | – | 50.2 | –
14 | UGAGCCGGCACUGAGGAUAUUCAUAUUAAAACAUGAGGAUCACCCAUGUAGGCCAGAAGGCCUUGGGAGAAGGCAGGUCGGCUCA [Mat - Same State 2 - Mod of UCT - D62] (Eterna round: R96, puzzle: Same State 2) | 19.5 | 190 | 311 | – | – | –
15 | GGUCCGGCCUGAGCUGGACCGAAGCAUGUACAUGAGGAUCACCCAUGUCAUGUACAGGCUUUUUGCUCGUCUUAUUG [JL-shm-2.13 JL Mod] (puzzle: Sensor for hsa-mir-208a) | – | – | – | 705 | 14.4 | 683
16 | GUCCGGCUGCCACAGGAUAUACGUGGAUCGACAUGAGGAUCACCCAUGUAUAUCCUAAUAAUUGCGUAGAAGGGUGGUCAGCCGG [Dionbe] (Eterna round: R96, puzzle: Same State 2) | – | 507 | – | – | – | –
17 | GCUUCACAUGAGGAUCACCCAUGUCGUCGGAGUCGAGGAUAUGGUAACUGUAAACAGUUGCCAGAAGGCGAGGAGC [SS1 - Son of Teenbexe v10] (puzzle: Same State 1) | – | – | – | 23.2 | 24.4 | 26
18 | UAGAGAGGAAGCGAGGAUAUCGUGGGAGGGACAUGAGGAUCACCCAUGUAGGAUGUUGAGAGGAACGAGAAGGCGCAGGAAAGUA [JR_SS2_Sub076] (puzzle: Same State 2) | – | – | – | 92.4 | 63.5 | 91.2
19 | AAGAAAGUUUACGAGGAUAUGUUCCGCAUAACAUGAGGAUCACCCAUGUGAACAAGAAAGGCGACGCAGAAGGCGUGAGCAAAGA [Atanansori] (Eterna round: R96, puzzle: Same State 2) | 42.4 | 152 | 219 | – | – | –
20 | GGUAUUGACACAGGAUAUGCUUACGAAACGUAAGCAGAAGGGUGAACAUGAGGAUCACCCAUGUAGGUACCAGGGCGUGAGCCC [JL SSNG1 1.75] (Eterna round: R96, puzzle: Same State NG 1) | 151 | 694 | 1470 | – | – | –
21 | GGUGCACGGUGACGUGCACGGUAGUGCGUACAUGAGGAUCACCCAUGUCAUGUAGGAGUUACUUGUUCGUCUUGAAC [SENSOR #2] (puzzle: Sensor for hsa-mir-208a) | – | – | – | 28.7 | 22.8 | 25.4
22 | GCAGCACAUGAGGAUCACCCAUGUCUUCGGAGUCGAGGAUAUGGUCACUGUAAACAGUGGCCAGAAGGCGAGUUGC [SS1 - Son of Teenbexe v5] (puzzle: Same State 1) | – | – | – | – | 24.3 | –
